Assay results reported in publication PMC4288178, “CRISPR RNA binding and DNA target recognition by purified Cascade complexes from Escherichia coli”.

Columns and labels:
Cascade- (crRNA-free …) [1] = molecular target: T1, Cascade- (crRNA-free Cse1-Cse2-Cas7-Cas5-Cas6e) (Escherichia coli (K12; expressed in …, UniProt Q46901;P76632;Q46899;Q46898;Q46897 1-502;1-160;1-363;1-224;1-199); assay: EMSA; affinity slightly lower than crRNA1; EMSA: 20 mM Tris-HCl pH 8, 20 mM NaCl, 10 nM 32P probe, 30 min at 30 or 37 C, 6% native PAGE; loading 10 min at 30 C with crRNA (0.5 uM in Fig 3). Kd values are printed only in Fig 5A (not in the material); settings: protein: recombinant, tags: N-terminal 6His on Cse1 (CasA), copies: 1;2;6;1;1
T1 sequence 1: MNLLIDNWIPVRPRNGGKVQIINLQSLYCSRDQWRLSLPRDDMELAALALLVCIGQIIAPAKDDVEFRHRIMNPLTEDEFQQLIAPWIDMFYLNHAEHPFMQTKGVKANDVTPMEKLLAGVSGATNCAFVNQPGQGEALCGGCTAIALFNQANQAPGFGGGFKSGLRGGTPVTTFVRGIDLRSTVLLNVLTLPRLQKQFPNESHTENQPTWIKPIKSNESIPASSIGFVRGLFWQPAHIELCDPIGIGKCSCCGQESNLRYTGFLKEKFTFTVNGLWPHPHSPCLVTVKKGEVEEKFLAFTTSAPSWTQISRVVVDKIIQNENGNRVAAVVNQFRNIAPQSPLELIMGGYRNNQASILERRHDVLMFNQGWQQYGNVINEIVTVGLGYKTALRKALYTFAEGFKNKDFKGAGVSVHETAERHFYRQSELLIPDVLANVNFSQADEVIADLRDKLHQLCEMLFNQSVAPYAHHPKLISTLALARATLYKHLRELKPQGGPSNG
T1 sequence 2: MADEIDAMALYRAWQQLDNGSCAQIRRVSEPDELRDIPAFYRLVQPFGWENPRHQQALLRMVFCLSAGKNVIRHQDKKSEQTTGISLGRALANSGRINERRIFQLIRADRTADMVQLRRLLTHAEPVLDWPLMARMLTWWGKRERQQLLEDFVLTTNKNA
T1 sequence 3: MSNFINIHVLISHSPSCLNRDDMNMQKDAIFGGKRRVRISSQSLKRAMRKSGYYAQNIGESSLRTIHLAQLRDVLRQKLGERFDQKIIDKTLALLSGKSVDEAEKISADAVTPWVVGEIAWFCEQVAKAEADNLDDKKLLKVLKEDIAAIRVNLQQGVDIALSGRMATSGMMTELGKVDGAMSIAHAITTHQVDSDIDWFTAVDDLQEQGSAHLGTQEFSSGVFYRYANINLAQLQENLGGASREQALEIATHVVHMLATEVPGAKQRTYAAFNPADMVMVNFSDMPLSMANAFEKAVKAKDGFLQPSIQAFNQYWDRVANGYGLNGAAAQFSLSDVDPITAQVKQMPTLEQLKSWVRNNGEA
T1 sequence 4: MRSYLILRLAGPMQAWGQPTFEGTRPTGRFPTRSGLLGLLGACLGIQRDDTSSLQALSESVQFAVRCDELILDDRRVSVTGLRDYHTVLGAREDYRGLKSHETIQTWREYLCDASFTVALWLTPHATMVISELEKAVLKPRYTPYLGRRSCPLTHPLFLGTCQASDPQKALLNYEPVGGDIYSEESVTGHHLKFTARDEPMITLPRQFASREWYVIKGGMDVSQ
T1 sequence 5: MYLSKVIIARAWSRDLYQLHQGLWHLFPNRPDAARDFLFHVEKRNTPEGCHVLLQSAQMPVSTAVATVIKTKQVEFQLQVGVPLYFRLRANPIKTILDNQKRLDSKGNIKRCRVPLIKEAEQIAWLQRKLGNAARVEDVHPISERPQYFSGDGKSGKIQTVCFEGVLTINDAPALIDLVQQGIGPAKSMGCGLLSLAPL

Cascade- (crRNA-free …) [2] = molecular target: T1, Cascade- (crRNA-free …); assay: EMSA; loaded with crRNA1; EMSA: 20 mM Tris-HCl pH 8, 20 mM NaCl, 10 nM 32P probe, 30 min at 30 or 37 C, 6% native PAGE; loading 10 min at 30 C with crRNA (0.5 uM in Fig 3). Kd values are printed only in Fig 5A (not in the material); settings: protein: recombinant, tags: N-terminal 6His on Cse1 (CasA), copies: 1;2;6;1;1, label: DNA 5'-32P
[3] = molecular target: T2, Cascade+ (Cascade co-expressed with g8 crRNA) (Escherichia coli (K12; expressed in …, UniProt Q46901;P76632;Q46899;Q46898;Q46897 1-502;1-160;1-363;1-224;1-199); assay: EMSA; EMSA: 20 mM Tris-HCl pH 8, 20 mM NaCl, 10 nM 32P probe, 30 min at 30 or 37 C, 6% native PAGE; loading 10 min at 30 C with crRNA (0.5 uM in Fig 3). Kd values are printed only in Fig 5A (not in the material); settings: protein: recombinant; tags: N-terminal 6His on Cse1 (CasA); copies: 1;2;6;1;1; label: DNA 5'-32P; guide + target strand
T2 sequence 1: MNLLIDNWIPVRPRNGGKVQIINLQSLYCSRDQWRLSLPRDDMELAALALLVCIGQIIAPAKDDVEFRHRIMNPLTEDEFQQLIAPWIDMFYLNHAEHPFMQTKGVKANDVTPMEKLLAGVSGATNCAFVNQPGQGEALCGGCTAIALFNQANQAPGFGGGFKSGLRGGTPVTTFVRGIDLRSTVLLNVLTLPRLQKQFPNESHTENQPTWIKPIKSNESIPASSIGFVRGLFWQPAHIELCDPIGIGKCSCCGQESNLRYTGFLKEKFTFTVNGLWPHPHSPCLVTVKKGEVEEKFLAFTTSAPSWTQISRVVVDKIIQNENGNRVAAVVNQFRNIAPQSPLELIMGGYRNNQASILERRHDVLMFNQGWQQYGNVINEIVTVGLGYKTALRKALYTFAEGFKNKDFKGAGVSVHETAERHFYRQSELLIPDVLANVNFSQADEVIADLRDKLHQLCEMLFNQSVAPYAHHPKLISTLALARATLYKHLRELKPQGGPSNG
T2 sequence 2: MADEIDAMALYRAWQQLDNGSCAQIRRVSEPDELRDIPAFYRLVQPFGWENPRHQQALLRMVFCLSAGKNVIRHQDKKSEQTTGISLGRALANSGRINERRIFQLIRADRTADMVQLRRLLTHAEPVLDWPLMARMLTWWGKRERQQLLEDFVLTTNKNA
T2 sequence 3: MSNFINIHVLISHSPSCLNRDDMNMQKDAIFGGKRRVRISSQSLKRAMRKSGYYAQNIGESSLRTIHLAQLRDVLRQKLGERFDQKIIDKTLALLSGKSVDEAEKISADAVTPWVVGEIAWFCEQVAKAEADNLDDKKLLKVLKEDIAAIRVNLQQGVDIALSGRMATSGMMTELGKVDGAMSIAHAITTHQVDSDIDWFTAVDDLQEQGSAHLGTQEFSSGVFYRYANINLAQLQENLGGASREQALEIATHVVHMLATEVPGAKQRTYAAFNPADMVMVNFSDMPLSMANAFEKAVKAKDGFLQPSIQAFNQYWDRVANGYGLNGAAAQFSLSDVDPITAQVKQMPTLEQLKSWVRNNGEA
T2 sequence 4: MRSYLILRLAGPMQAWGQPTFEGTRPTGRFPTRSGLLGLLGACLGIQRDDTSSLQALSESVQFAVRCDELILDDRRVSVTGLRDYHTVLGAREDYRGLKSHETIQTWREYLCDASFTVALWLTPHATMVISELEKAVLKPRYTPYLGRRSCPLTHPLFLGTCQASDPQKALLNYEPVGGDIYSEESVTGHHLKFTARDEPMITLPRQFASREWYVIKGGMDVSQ
T2 sequence 5: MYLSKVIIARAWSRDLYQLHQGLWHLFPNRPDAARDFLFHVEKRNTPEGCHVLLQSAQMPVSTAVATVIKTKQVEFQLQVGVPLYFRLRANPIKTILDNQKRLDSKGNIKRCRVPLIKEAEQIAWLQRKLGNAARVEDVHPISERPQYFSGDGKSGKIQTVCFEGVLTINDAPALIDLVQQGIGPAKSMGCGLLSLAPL

[4] = molecular target: T2, Cascade+ (Cascade co-expressed with g8 …); assay: EMSA; co-expressed crRNA; EMSA: 20 mM Tris-HCl pH 8, 20 mM NaCl, 10 nM 32P probe, 30 min at 30 or 37 C, 6% native PAGE; loading 10 min at 30 C with crRNA (0.5 uM in Fig 3). Kd values are printed only in Fig 5A (not in the material); settings: protein: recombinant; tags: N-terminal 6His on Cse1 (CasA); copies: 1;2;6;1;1; label: DNA 5'-32P; guide + blunt duplex
[5] = molecular target: T2, Cascade+ (Cascade co-expressed with g8 …); assay: EMSA; co-expressed g8 crRNA; EMSA: 20 mM Tris-HCl pH 8, 20 mM NaCl, 10 nM 32P probe, 30 min at 30 or 37 C, 6% native PAGE; loading 10 min at 30 C with crRNA (0.5 uM in Fig 3). Kd values are printed only in Fig 5A (not in the material); settings: protein: recombinant; tags: N-terminal 6His on Cse1 (CasA); copies: 1;2;6;1;1; label: 5'-32P; 3' handle hairpin
Cascade- (crRNA-free …) [6] = molecular target: T1, Cascade- (crRNA-free …); assay: EMSA; EMSA: 20 mM Tris-HCl pH 8, 20 mM NaCl, 10 nM 32P probe, 30 min at 30 or 37 C, 6% native PAGE; loading 10 min at 30 C with crRNA (0.5 uM in Fig 3). Kd values are printed only in Fig 5A (not in the material); settings: protein: recombinant; tags: N-terminal 6His on Cse1 (CasA); copies: 1;2;6;1;1; label: 5'-32P; 3' handle hairpin
Cascade- (crRNA-free …) [7] = molecular target: T1, Cascade- (crRNA-free …); assay: EMSA; loaded with crRNA MS2; EMSA: 20 mM Tris-HCl pH 8, 20 mM NaCl, 10 nM 32P probe, 30 min at 30 or 37 C, 6% native PAGE; loading 10 min at 30 C with crRNA (0.5 uM in Fig 3). Kd values are printed only in Fig 5A (not in the material); settings: protein: recombinant; tags: N-terminal 6His on Cse1 (CasA); copies: 1;2;6;1;1; label: DNA 5'-32P; guide + blunt duplex

B1: crRNA7 (-8/+5) (ssRNA)
RNA: AUAAACCGCUGUCUUUCGCUGCUGAGGGUGACGAUCCGCCGAGUU
Cascade- (crRNA-free …) [1]; label: 5'-32P
  binding result: binds

B2: g8 crRNA + g8 ssDNA (mixed)
RNA: AUAAACCGCUGUCUUUCGCUGCUGAGGGUGACGAUCCGCCGAGUUCCCCGCGCCAGCGGGG
DNA: CAGGGAGTTAAAGGCCGCTTTTGCGGGATCGTCACCCTCAGCAGCGAAAGACAGCATCGGAACGAGGGTAGCAACGGCT
Cascade- (crRNA-free …) [2]; guide + target strand
  binding result: binds
[3]
  binding result: binds

B3: g8 crRNA1 + g8 dsDNA (mixed)
RNA: AUAAACCGCUGUCUUUCGCUGCUGAGGGUGACGAUCCGCCGAGUUCCCCGCGCCAGCGGGG
DNA 1: CAGGGAGTTAAAGGCCGCTTTTGCGGGATCGTCACCCTCAGCAGCGAAAGACAGCATCGGAACGAGGGTAGCAACGGCT
DNA 2: AGCCGTTGCTACCCTCGTTCCGATGCTGTCTTTCGCTGCTGAGGGTGACGATCCCGCAAAAGCGGCCTTTAACTCCCTG
modifications: 2',3'-cyclic phosphate on crRNA
Cascade- (crRNA-free …) [2]; guide + blunt duplex
  binding result: binds
[4]
  binding result: binds

B4: crRNA7 (-8/+5) + g8 dsDNA (mixed)
RNA: AUAAACCGCUGUCUUUCGCUGCUGAGGGUGACGAUCCGCCGAGUU
DNA 1: CAGGGAGTTAAAGGCCGCTTTTGCGGGATCGTCACCCTCAGCAGCGAAAGACAGCATCGGAACGAGGGTAGCAACGGCT
DNA 2: AGCCGTTGCTACCCTCGTTCCGATGCTGTCTTTCGCTGCTGAGGGTGACGATCCCGCAAAAGCGGCCTTTAACTCCCTG
Cascade- (crRNA-free …) [1]; label: DNA 5'-32P, guide + blunt duplex
  binding result: binds

B5: crRNA1 (-8/+21) (structured_RNA)
RNA: AUAAACCGCUGUCUUUCGCUGCUGAGGGUGACGAUCCGCCGAGUUCCCCGCGCCAGCGGGG
modifications: 2',3'-cyclic phosphate at 3' end
[5]
  binding result: binds
Cascade- (crRNA-free …) [6]
  binding result: binds

B6: crRNA MS2 + MS2 dsDNA (mixed)
RNA: AUAAACCGGCACCGACCCCUUUCUGGAGGUACAUAUUCAUGAGUUCCCCGCGCCAGCGGGG
DNA 1: TGAGCCGGCGTCTGATAAAGGCACCGACCCCTTTCTGGAGGTACATATTCATATCAGGCTCCTTACAGGCAG
DNA 2: CTGCCTGTAAGGAGCCTGATATGAATATGTACCTCCAGAAAGGGGTCGGTGCCTTTATCAGACGCCGGCTCA
Cascade- (crRNA-free …) [7]
  binding result: binds
